The target of test [1] is glycinin (soybean). The test is described as follows: mass photometry; label-free glycinin 0.48 µg/mL adsorbed on a supported lipid bilayer of DOPC, 365 mM NaCl, 5 min incubation; oligomers counted among the membrane-adsorbed particles.
In test [2] the target is glycinin (soybean). The test is described as follows: mass photometry; label-free glycinin 0.48 µg/mL adsorbed on a supported lipid bilayer of DOPC, 20 mM NaCl, 5 min incubation; oligomers counted among the membrane-adsorbed particles.

Several values for one entry are separate records, joined by “and”; a condition that tells them apart may be missing. Equal entries are not always repeated.

glycinin, sequence (P04776 20-495): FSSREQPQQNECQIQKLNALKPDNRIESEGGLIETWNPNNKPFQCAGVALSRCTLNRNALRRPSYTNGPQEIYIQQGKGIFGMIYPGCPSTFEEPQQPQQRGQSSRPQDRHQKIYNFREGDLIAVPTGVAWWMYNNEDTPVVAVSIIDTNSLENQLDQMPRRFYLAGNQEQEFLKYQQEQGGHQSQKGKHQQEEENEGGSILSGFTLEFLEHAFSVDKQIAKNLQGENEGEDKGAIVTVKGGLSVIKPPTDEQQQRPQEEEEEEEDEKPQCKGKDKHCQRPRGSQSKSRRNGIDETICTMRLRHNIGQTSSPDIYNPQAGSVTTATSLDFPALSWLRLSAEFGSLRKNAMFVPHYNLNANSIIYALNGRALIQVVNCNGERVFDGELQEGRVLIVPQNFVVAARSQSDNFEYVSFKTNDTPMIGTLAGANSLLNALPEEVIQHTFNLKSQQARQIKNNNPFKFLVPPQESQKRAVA

Consider glycinin (natural protein), for which the stoichiometry N was 9 with glycinin (soybean) [1]; 3 and 6 in the test with glycinin (soybean) [2].

The values are drawn from PMC11926106.
